The source of these data is patent EP4810056A2.

This assay concerns the target PD-1 (programmed death 1) on peripheral CD4 T cells of treated subjects (human) (UniProt Q15116). As to the kind of experiment: flow cytometry of free PD-1 on CD4 T cells of subjects after IV MEDI5752 (receptor occupancy, in vivo dosing >225 mg).
Sequence of UniProt Q15116 (Q15116 25-288): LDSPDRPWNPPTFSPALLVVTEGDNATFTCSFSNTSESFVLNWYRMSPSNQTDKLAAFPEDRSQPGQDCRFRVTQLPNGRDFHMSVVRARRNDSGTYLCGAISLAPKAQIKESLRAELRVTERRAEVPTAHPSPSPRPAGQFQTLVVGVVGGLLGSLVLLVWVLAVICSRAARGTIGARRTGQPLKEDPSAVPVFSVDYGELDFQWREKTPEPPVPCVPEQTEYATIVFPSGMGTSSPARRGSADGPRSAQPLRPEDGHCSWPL

MEDI5752 (bispecific antibody) registered a peripheral PD-1 receptor occupancy of over 90%.
